This is an account of results in IntAct's records for PubMed 9687513.

To fix the notation:
B1: Early protein (Human adenovirus C serotype 5 (HAdV-5)), P03255-2 (parent)
chain: MRHIICHGGVITEEMAASLLDQLIEEVLADNLPPPSHFEPPTLHELYDLDVTAPEDPNEEAVSQIFPDSVMLAVQEGIDLLTFPPAPGSPEPPHLSRQPEQPEQRALGPVSMPNLVPEVIDLTCHEAGFPPSDDEDEEGPVSEPEPEPEPEPEPARPTRRPKMAPAILRRPTSPVSRECNSSTDSCDSGPSNTPPEIHPVVPLCPIKPVAVRVGGRRQAVECIEDLLNEPGQPLDLSCKRPRP

Variants of B1 are the subject of this assay. The following applies: with kat2b_human KAT2B.
In the case of E55A;D56A;P57A;N58A;E59A;E60A, the “effect of a mutation on the interaction” value is given as “decreasing interaction”.
